Reference: paper PMC9135441

Experiments:
[1] = tested on: O=C[C@H](O)[C@@H](O)[C@H](O)[C@@H](O)CO; assay: purified protein; settings: NADPH
CCCCCC(O)C=CC=O = assay: purified protein; settings: NADPH

## aldose reductase (AKR1B1) (Homo sapiens)
[1]
  Km: 4260 ± 350 µM
CCCCCC(O)C=CC=O
  Km: 51 ± 5 µM
